Assay results as given in paper PMC9365803, “Identification of a HTT-specific binding motif in DNAJB1 essential for suppression and disaggregation of HTT” (Nature Communications, 2022).
Read-outs that look alike come from different tables or passages of the source. Blank lines part the entries; values can stand above or below the molecule they belong to.

Key:
HTTExon1Q48 [1] = target: HTTExon1Q48
HTTExon1Q48 [2] = target: HTTExon1Q48; remark: listed apart in the source
DNAJB1^wt [3] = target: T1, DNAJB1^wt (human, UniProt P25685 1-340); experiment: cross-linking; XL-MS: HTTExon1Q23/48 incubated with Hsc70, DNAJB1 and Apg2 in the presence of ATP; 5–10 μM total protein, 0.5–1 mM SDA, 30 min at room temperature, UV photoactivation, SDS-PAGE, in-gel digestion with elastase, LC/MS; conditions: both partners purified
T1 construct: DNAJB1 (human Hsp40), class B J-domain protein; primers M1/S1 start at the start codon and the stop codon follows residue 340 (primers E, T1); also called wt DNAJB1; Hsp40; source: E. coli BL21-CodonPlus (DE3)-RIPL, purified (Ni-NTA; His-Smt3 tag cleaved with His-Ulp1); not shown: 6His-Smt3, N-terminal, cleaved

[4] = target: the molecule itself; experiment: FRET or BRET; fibrilization assay: equimolar GST-HTTExon1Q48-CyPet and GST-HTTExon1Q48-YPet, 0.75 µM in all; 30 mM HEPES pH 7.4, 150 mM NaCl, 5 mM MgCl2, 1 mM DTT, 5 mM ATP with regenerating system; without chaperones; FRET rises on aggregation
DNAJB1^wt [5] = target: T1, DNAJB1^wt; experiment: co-sedimentation; HTT fibril-binding assay: 2 µM HTTExon1Q48 aggregated 4.5 h at 20 °C; DNAJB1 variant added at 1 µM, 1 h at RT; sedimented at 20.000 rpm 30 min 4 °C; pellet analysed by Western blot; conditions: both partners purified

T1 sequence (P25685 whole entry): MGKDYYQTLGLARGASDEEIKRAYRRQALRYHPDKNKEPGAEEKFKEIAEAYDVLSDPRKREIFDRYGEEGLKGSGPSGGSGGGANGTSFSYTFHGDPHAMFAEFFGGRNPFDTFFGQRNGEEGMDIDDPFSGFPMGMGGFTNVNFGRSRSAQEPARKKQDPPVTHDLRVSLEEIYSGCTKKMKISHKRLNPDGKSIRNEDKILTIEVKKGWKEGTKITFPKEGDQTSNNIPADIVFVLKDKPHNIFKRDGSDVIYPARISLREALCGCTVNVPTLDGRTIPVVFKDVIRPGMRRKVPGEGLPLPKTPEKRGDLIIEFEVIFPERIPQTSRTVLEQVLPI

Molecule: DNAJB1^K242A (from UniProt P25685 1-340) (natural protein)
- half-life (T1/2) of HTTExon1Q48 fibrilization, FRET assay, with Hsc70, Apg2 and ATP (HTTExon1Q48 [1]): 16 h

Molecule: DNAJB1^H244F (from UniProt P25685 1-340) (natural protein)
- half-life (T1/2) of HTTExon1Q48 fibrilization, FRET assay, with Hsc70, Apg2 and ATP (HTTExon1Q48 [2]): 10 h

Molecule: DNAJB1^H244Q (from UniProt P25685 1-340) (natural protein)
- half-life (T1/2) of HTTExon1Q48 fibrilization, FRET assay, with Hsc70, Apg2 and ATP (HTTExon1Q48 [2]): 24 h

B1: HTTExon1Q48 (domain or fragment)
chain: MATLEKLMKAFESLKSFQQQQQQQQQQQQQQQQQQQQQQQQQQQQQQQQQQQQQQQQQQQQQQQQPPPPPPPPPPPQLPQPPPQAQPLLPQLQPPPPPPPPPPGPAAAEEPLHRP
notes: first exon of huntingtin with an expanded stretch of 48 glutamines; The XL-MS methods say only HTT; the only purification told is that of GST-HTTExon1Q48-CyPet/YPet (pGEX-6P1), so tags in the XL-MS sample are not certain; In the FRET assay two forms (CyPet and YPet) are mixed equimolar; also called GST-HTTExon1Q48-CyPet/YPet; HTTExon1Q48-CyPet/YPet; source: E. coli BL21-CodonPlus (DE3)-RIPL, …
- binding result (DNAJB1^wt [3]): binds
- binding result [4]: binds

B3: HTTExon1Q48ΔP2 (domain or fragment)
chain: MATLEKLMKAFESLKSFQQQQQQQQQQQQQQQQQQQQQQQQQQQQQQQQQQQQQQQQQQQQQQQQPPPPPPPPPPPQLPQPPPQAQPLLPQAAEEPLHRP
notes: Used soluble in the FRET assay and as fibrils in the disaggregation assay; also called HTTExon1Q48ΔP2-CyPet/YPet; source: E. coli BL21-CodonPlus (DE3)-RIPL, purified (glutathione sepharose); not shown: CyPet or YPet, C-terminal, kept
- binding result [4]: binds

Other lines, results leading:

- half-life (T1/2) of HTTExon1Q48 fibrilization, FRET assay, with Hsc70, Apg2 and ATP (HTTExon1Q48 [2]): 17 h
Molecule: DNAJB1^H244R (from UniProt P25685 1-340) (natural protein)

- binding result (DNAJB1^wt [5]): binds
B2: HTTExon1Q48 fibrils (other)
chain: B1 chain
notes: first exon of huntingtin with 48 glutamines, as amyloid fibrils; Amyloid fibrils of many copies; also called HTT fibrils; preformed HTTExon1Q48 fibrils; not shown: GST, N-terminal, cleaved; CyPet, C-terminal, kept
